Results: patent US20250250343A1 (UNITY BIOTECHNOLOGY, published 2025)
Like-named read-outs stand apart in the source and are kept apart here.

What was measured:
Experiment in all cases: cell-based or functional assay
human Tie2 [1] = target: T1, human Tie2 (human, UniProt Q02763 23-1124)
human Tie2 [2] = target: T1, human Tie2; remark: listed apart in the source
human Tie2 [3] = target: T1, human Tie2; remark: listed apart in the source
VEGF [4] = target: T2, VEGF (human, UniProt P15692-4)
human Tie2 [5] = target: T1, human Tie2; remark: listed apart in the source
VEGF [6] = target: T2, VEGF; remark: listed apart in the source
human Tie2 [7] = target: T1, human Tie2; remark: listed apart in the source
human Tie2 [8] = target: T1, human Tie2; remark: listed apart in the source
human Tie2 [9] = target: T1, human Tie2; remark: listed apart in the source
VEGF [10] = target: T2, VEGF; remark: listed apart in the source
human Tie2 [11] = target: T1, human Tie2; remark: listed apart in the source
VEGF [12] = target: T2, VEGF; remark: listed apart in the source

T2 sequence (P15692 other isoform, or with tags, fused parts or gaps limits assumed): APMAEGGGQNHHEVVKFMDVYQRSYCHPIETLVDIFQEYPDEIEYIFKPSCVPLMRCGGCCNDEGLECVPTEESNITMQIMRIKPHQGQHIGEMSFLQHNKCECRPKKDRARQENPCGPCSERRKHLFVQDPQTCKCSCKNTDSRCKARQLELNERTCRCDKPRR
T1 sequence (Q02763 23-1124): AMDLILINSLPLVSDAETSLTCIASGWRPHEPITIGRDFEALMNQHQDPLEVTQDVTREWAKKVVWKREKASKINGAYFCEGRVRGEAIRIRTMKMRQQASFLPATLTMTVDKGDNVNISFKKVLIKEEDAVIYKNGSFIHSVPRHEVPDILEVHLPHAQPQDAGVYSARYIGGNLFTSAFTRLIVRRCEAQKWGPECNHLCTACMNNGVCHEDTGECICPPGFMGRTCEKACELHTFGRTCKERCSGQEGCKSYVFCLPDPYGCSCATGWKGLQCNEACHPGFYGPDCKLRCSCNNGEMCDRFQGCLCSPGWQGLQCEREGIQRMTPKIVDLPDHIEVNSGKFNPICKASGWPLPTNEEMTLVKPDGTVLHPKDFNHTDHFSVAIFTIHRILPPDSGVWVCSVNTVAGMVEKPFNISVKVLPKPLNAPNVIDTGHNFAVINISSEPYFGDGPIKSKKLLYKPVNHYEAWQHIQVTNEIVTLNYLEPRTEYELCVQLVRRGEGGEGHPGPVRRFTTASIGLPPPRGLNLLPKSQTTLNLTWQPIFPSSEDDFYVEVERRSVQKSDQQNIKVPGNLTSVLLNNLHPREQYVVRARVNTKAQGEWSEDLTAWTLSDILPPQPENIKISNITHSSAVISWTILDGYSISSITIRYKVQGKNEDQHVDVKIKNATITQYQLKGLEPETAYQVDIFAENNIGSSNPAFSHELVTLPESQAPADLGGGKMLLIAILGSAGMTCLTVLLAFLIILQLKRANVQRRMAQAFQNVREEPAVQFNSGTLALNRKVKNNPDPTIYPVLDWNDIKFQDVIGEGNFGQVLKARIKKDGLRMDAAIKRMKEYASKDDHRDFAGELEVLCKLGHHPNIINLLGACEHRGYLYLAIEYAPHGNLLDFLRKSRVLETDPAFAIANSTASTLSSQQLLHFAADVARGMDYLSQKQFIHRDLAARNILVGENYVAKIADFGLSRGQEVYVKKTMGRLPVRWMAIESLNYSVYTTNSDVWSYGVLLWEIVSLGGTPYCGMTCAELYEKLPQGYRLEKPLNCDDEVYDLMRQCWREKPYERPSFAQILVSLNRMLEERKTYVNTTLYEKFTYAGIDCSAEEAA

B1: Construct #1 (bispecific antibody, human IgG1, kappa, L234A L235A)
heavy: DVQLVESGGGVVRPGESLRLSCTASGFTFDSYGMSWVRQAPGKGLEWVSSINVGDNTYYADSVRGRFIISRDSSRNTLYLQMNSLTAEDTAVYYCANWNSFFDYWGLGTLVTVSSASTKGPSVFPLAPSSKSTSGGTAALGCLVKDYFPEPVTVSWNSGALTSGVHTFPAVLQSSGLYSLSSVVTVPSSSLGTQTYICNVNHKPSNTKVDKKVEPKSCDKTHTCPPCPAPEAAGGPSVFLFPPKPKDTLMISRTPEVTCVVVDVSHEDPEVKFNWYVDGVEVHNAKTKPREEQYNSTYRVVSVLTVLHQDWLNGKEYKCKVSNKALGAPIEKTISKAKGQPREPQVYTLPPSREEMTKNQVSLTCLVKGFYPSDIAVEWESNGQPENNYKTTPPVLDSDGSFFLYSKLTVDKSRWQQGNVFSCSVMHEALHNHYTQKSLSLSPGKSDTGRPFVEMYSEIPEIIHMTEGRELVIPCRVTSPNITVTLKKFPLDTLIPDGKRIIWDSRKGFIISNATYKEIGLLTCEATVNGHLYKTNYLTHRQTNTIIDVVLSPSHGIELSVGEKLVLNCTARTELNVGIDFNWEYPSSKHQHKKLVNRDLKTQSGSEMKKFLSTLTIDGVTRSDQGLYTCAASSGLMTKKNSTFVRVHEK
light: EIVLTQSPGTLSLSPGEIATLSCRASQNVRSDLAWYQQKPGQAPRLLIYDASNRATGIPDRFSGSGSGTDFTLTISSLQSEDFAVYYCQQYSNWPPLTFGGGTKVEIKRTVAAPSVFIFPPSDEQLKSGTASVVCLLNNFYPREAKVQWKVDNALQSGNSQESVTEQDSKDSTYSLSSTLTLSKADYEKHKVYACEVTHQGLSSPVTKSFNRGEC
B1 was tested, and the “EC50, pTie2 in HUVEC, W/ VEGF (20 nM VEGF-165 per paragraph 153) [Panel E]” value (human Tie2 [1]) was 0.39 nM, the “EC50, pTie2 in HUVEC, W/O VEGF [Panel E]” value (human Tie2 [1]) was 1.33 nM and the “EC50, pTie2 in HUVEC, W/ VEGF (panels A-C print 'W/ VEGF 50nM'; paragraph 153 says 20 nM) [Panel D]” value (human Tie2 [2]) was 0.39 nM. For the same binder, the “EC50, pTie2 in HUVEC, W/O VEGF [Panel D]” value (human Tie2 [2]) was 1.33 nM, the “EC50, pTIE2 in HUVEC [Panel C]” value (human Tie2 [3]) was 3.56 nM and the “EC50, VEGF inhibition, KDR/NFAT-RE HEK293 luciferase reporter [Panel C]” value (VEGF [4]) was 1.6 nM. For the same binder, the “EC50, pTie2 in HUVEC (in vitro potency)” value (human Tie2 [5]) was 4.2 nM, the “EC50, VEGF neutralisation, KDR/NFAT-RE HEK293 luciferase reporter” value (VEGF [6]) was 1.3 nM and the “EC50, pAkt in HUVEC (MSD ELISA) [Panel B]” value (shortened to “EC50, pAkt in HUVEC”) (human Tie2 [7]) was 1.33 nM. The “EC50, pAkt in HUVEC” value (human Tie2 [8]) was 0.909 nM and the “phosphorylated Akt potency in HUVEC cells, against Construct #5” value (human Tie2 [9]) was ~5 fold.

B2: #2 (bispecific antibody, human IgG1, kappa, L234A L235A)
heavy chain: DVQLVESGGGVVRPGESLRLSCTASGFTFDSYGMSWVRQAPGKGLEWVSSINVGDNTYYADSVRGRFIISRDSSRNTLYLQMNSLTAEDTAVYYCANWNSFFDYWGLGTLVTVSSASTKGPSVFPLAPSSKSTSGGTAALGCLVKDYFPEPVTVSWNSGALTSGVHTFPAVLQSSGLYSLSSVVTVPSSSLGTQTYICNVNHKPSNTKVDKKVEPKSCDKTHTCPPCPAPEAAGGPSVFLFPPKPKDTLMISRTPEVTCVVVDVSHEDPEVKFNWYVDGVEVHNAKTKPREEQYNSTYRVVSVLTVLHQDWLNGKEYKCKVSNKALGAPIEKTISKAKGQPREPQVYTLPPSREEMTKNQVSLTCLVKGFYPSDIAVEWESNGQPENNYKTTPPVLDSDGSFFLYSKLTVDKSRWQQGNVFSCSVMHEALHNHYTQKSLSLSPGKGGGGSGGGGSDIQMTQSPSSLSASVGDRVTITCRASQVIRRSLAWYQQKPGKAPKLLIYAASNLASGVPSRFSGSGSGTDFTLTISSLQPEDFATYYCQQSNTSPLTFGQGTKVEIKGQSSRSSGGGGSSGGGGSEVQLVESGGGLVQPGGSLRLSCAASGFSINGSWIFWVRQAPGKGLEWVGAIWPFGGYTHYADSVKGRFTISADTSKNTAYLQMNSLRAEDTAVYYCARWGHSTSPWAMDYWGQGTLVTVSS
light chain (kappa): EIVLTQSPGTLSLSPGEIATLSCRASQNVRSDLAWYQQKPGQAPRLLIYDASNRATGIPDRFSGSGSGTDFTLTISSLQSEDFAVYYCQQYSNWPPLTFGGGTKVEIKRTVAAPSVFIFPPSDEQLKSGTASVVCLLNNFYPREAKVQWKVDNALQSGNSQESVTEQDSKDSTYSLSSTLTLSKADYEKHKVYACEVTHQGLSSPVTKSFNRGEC
With B2 the “IC50 (read off the curve); % VEGF activity, KDR/NFAT-RE HEK293 luciferase reporter [Panel A]” value (VEGF [10]) was ~1 nM, the “EC50, pTie2 in HUVEC (in vitro potency; the sheet's head prints no unit, EC50 in nM per legend paragraph 17)” value (human Tie2 [11]) was 2.1 nM and the “EC50, VEGF neutralisation, KDR/NFAT-RE HEK293 luciferase reporter (the sheet's head prints no unit, EC50 in nM per legend paragraph 17)” value (VEGF [12]) was 0.9 nM.

B3: Construct #3 (bispecific antibody, human IgG1, kappa, L234A L235A)
heavy: DVQLVESGGGVVRPGESLRLSCTASGFTFDSYGMSWVRQAPGKGLEWVSSINVGDNTYYADSVRGRFIISRDSSRNTLYLQMNSLTAEDTAVYYCANWNSFFDYWGLGTLVTVSSASTKGPSVFPLAPSSKSTSGGTAALGCLVKDYFPEPVTVSWNSGALTSGVHTFPAVLQSSGLYSLSSVVTVPSSSLGTQTYICNVNHKPSNTKVDKKVEPKSCDKTHTCPPCPAPEAAGGPSVFLFPPKPKDTLMISRTPEVTCVVVDVSHEDPEVKFNWYVDGVEVHNAKTKPREEQYNSTYRVVSVLTVLHQDWLNGKEYKCKVSNKALGAPIEKTISKAKGQPREPQVYTLPPSREEMTKNQVSLTCLVKGFYPSDIAVEWESNGQPENNYKTTPPVLDSDGSFFLYSKLTVDKSRWQQGNVFSCSVMHEALHNHYTQKSLSLSPGKGGGGSGGGGSGGGGSSDTGRPFVEMYSEIPEIIHMTEGRELVIPCRVTSPNITVTLKKFPLDTLIPDGKRIIWDSRKGFIISNATYKEIGLLTCEATVNGHLYKTNYLTHRQTNTIIDVVLSPSHGIELSVGEKLVLNCTARTELNVGIDFNWEYPSSKHQHKKLVNRDLKTQSGSEMKKFLSTLTIDGVTRSDQGLYTCAASSGLMTKKNSTFVRVHEK
light: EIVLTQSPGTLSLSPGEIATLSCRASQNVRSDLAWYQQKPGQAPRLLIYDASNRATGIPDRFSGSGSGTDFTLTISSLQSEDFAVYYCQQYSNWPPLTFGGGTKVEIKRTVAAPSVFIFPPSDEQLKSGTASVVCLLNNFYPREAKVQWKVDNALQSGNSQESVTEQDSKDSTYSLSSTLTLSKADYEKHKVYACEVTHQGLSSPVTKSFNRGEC
In the case of B3, the “EC50, pTie2 in HUVEC, W/ VEGF (panels A-C print 'W/ VEGF 50nM'; paragraph 153 says 20 nM) [Panel D]” value (human Tie2 [2]) is reported as 0.87 nM, the “EC50, pTie2 in HUVEC, W/O VEGF [Panel D]” value (human Tie2 [2]) is reported as 2.24 nM and the “EC50, pTIE2 in HUVEC [Panel C]” value (human Tie2 [3]) is reported as 2.42 nM. For the same binder, the “EC50, VEGF inhibition, KDR/NFAT-RE HEK293 luciferase reporter [Panel C]” value (VEGF [4]) was 0.31 nM, the “EC50, pTie2 in HUVEC (in vitro potency)” value (human Tie2 [5]) was 3.55 nM and the “EC50, VEGF neutralisation, KDR/NFAT-RE HEK293 luciferase reporter” value (VEGF [6]) was 0.245 nM. For the same binder, the “EC50, pAkt in HUVEC” value (human Tie2 [7]) was 0.87 nM.

B4: #13 (bispecific antibody, human IgG1, kappa, L234A L235A)
heavy chain: DVQLVESGGGVVRPGESLRLSCTASGFTFDSYGMSWVRQAPGKGLEWVSSINVGDNTYYADSVRGRFIISRDSSRNTLYLQMNSLTAEDTAVYYCANWNSFFDYWGLGTLVTVSSASTKGPSVFPLAPSSKSTSGGTAALGCLVKDYFPEPVTVSWNSGALTSGVHTFPAVLQSSGLYSLSSVVTVPSSSLGTQTYICNVNHKPSNTKVDKKVEPKSCDKTHTCPPCPAPEAAGGPSVFLFPPKPKDTLMISRTPEVTCVVVDVSHEDPEVKFNWYVDGVEVHNAKTKPREEQYNSTYRVVSVLTVLHQDWLNGKEYKCKVSNKALGAPIEKTISKAKGQPREPQVYTLPPSREEMTKNQVSLTCLVKGFYPSDIAVEWESNGQPENNYKTTPPVLDSDGSFFLYSKLTVDKSRWQQGNVFSCSVMHEALHNHYTQKSLSLSPGKKEHVRVFTSNKKTMLGSSAACTYLGQDSRTVGDITLTSLFKKMESGSQTKLDRNVLKKHQHKSSPYEWNFDIGVNLETRATCNLVLKEGVSLEIGHSPSLVVDIITNTQRHTLYNTKYLHGNVTAECTLLGIEKYTANSIIFGKRSDWIIRKGDPILTDLPFKKLTVTINPSTVRCPIVLERGETMHIIEPIESYMEVFPRGTDS
light chain (kappa): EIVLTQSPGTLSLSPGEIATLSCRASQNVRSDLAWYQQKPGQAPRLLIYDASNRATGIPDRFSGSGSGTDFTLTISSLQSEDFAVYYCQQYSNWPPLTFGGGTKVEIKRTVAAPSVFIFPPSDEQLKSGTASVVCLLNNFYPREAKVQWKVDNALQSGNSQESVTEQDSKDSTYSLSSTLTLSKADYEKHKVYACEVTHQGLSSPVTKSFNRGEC
With B4 the “EC50, VEGF neutralisation, KDR/NFAT-RE HEK293 luciferase reporter” value (VEGF [6]) was 0.854 nM.

B5: #11 (bispecific antibody, human IgG1, kappa, L234A L235A)
heavy chain: DVQLVESGGGVVRPGESLRLSCTASGFTFDSYGMSWVRQAPGKGLEWVSSINVGDNTYYADSVRGRFIISRDSSRNTLYLQMNSLTAEDTAVYYCANWNSFFDYWGLGTLVTVSSASTKGPSVFPLAPSSKSTSGGTAALGCLVKDYFPEPVTVSWNSGALTSGVHTFPAVLQSSGLYSLSSVVTVPSSSLGTQTYICNVNHKPSNTKVDKKVEPKSCDKTHTCPPCPAPEAAGGPSVFLFPPKPKDTLMASRTPEVTCVVVDVSHEDPEVKFNWYVDGVEVHNAKTKPREEQYNSTYRVVSVLTVLAQDWLNGKEYKCKVSNKALGAPIEKTISKAKGQPREPQVYTLPPSREEMTKNQVSLTCLVKGFYPSDIAVEWESNGQPENNYKTTPPVLDSDGSFFLYSKLTVDKSRWQQGNVFSCSVMHEALHNAYTQKSLSLSPGKGGGGSGGGGSDIQLTQSPSSLSASVGDRVTITCSASQDISNYLNWYQQKPGKAPKVLIYFTSSLHSGVPSRFSGSGSGTDFTLTISSLQPEDFATYYCQQYSTVPWTFGQGTKVEIKGQSSRSSGGGGSSGGGGSEVQLVESGGGLVQPGGSLRLSCAASGYDFTHYGMNWVRQAPGKGLEWVGWINTYTGEPTYAADFKRRFTFSLDTSKSTAYLQMNSLRAEDTAVYYCAKYPYYYGTSHWYFDVWGQGTLVTVSS
light chain (kappa): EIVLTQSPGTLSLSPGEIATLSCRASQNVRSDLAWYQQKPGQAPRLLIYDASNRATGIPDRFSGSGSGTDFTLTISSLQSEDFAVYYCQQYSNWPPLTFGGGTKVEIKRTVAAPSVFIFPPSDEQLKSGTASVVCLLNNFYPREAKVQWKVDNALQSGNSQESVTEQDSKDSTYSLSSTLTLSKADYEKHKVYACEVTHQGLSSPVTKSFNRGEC
B5 was tested, and the “EC50, VEGF neutralisation, KDR/NFAT-RE HEK293 luciferase reporter (the sheet's head prints no unit, EC50 in nM per legend paragraph 17)” value (VEGF [12]) was 0.107 nM.
